B1: Eukaryotic initiation factor 4F subunit p150 (Saccharomyces cerevisiae), P39935 (parent)
chain: MTDETAHPTQSASKQESAALKQTGDDQQESQQQRGYTNYNNGSNYTQKKPYNSNRPHQQRGGKFGPNRYNNRGNYNGGGSFRGGHMGANSSNVPWTGYYNNYPVYYQPQQMAAAGSAPANPIPVEEKSPVPTKIEITTKSGEHLDLKEQHKAKLQSQERSTVSPQPESKLKETSDSTSTSTPTPTPSTNDSKASSEENISEAEKTRRNFIEQVKLRKAALEKKRKEQLEGSSGNNNIPMKTTPENVEEKGSDKPEVTEKTKPAEEKSAEPEVKQETPAEEGEQGEKGQIKEESTPKVLTFAERLKLKKQQKEREEKTEGKENKEVPVQEETKSAIESAPVPPSEQVKEETEVAETEQSNIDESATTPAIPTKSDEAEAEVEAEAGDAGTKIGLEAEIETTTDETDDGTNTVSHILNVLKDATPIEDVFSFNYPEGIEGPDIKYKKEHVKYTYGPTFLLQFKDKLNVKADAEWVQSTASKIVIPPGMGRGNRSRDSGRFGNNSSRGHDFRNTSVRNMDDRANSRTSSKRRSKRMNDDRRSNRSYTSRRDRERGSYRNEEKREDDKPKEEVAPLVPSANRWVPKFKSKKTEKKLAPDGKTELLDKDEVERKMKSLLNKLTLEMFDAISSEILAIANISVWETNGETLKAVIEQIFLKACDEPHWSSMYAQLCGKVVKELNPDITDETNEGKTGPKLVLHYLVARCHAEFDKGWTDKLPTNEDGTPLEPEMMSEEYYAAASAKRRGLGLVRFIGFLYRLNLLTGKMMFECFRRLMKDLTDSPSEETLESVVELLNTVGEQFETDSFRTGQATLEGSQLLDSLFGILDNIIQTAKISSRIKFKLIDIKELRHDKNWNSDKKDNGPKTIQQIHEEEERQRQLKNNSRSNSRRTNNSSNRHSFRRDAPPASKDSFITTRTYSQRNSQRAPPPKEEPAAPTSTATNMFSALMGESDDEE
partner: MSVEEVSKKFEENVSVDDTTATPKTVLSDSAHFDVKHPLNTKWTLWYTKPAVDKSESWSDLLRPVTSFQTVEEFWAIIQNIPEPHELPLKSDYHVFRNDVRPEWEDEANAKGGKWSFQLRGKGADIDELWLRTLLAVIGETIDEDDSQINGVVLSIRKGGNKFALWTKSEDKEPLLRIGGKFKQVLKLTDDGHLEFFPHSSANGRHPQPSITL

Variants of: B1
Details: with if4e_yeast CDC33, P07260

effect of a mutation on the interaction	Variant
decreasing interaction	L457A;L458A
decreasing interaction	K444A
decreasing interaction	E425D
